The values below come from patent publication US20230270861A1, “Inhibitors of the Artemin Pathway for Treatment of Cancer” (The University of Chicago, priority 2020, published 2023).

The conditions of series [1]: cited from earlier work.
The test system of series [2] is Ter-cells. The experiment in a line: Spleen size, splenocytes and splenic Ter-cells by flow cytometry. In kind it is in vivo, mouse. How it is done:
(§1) Tumor models and treatments. 1×10^6 MC38, LLC, or B16-SIY tumor cells were subcutaneously injected into the flank of mice. On day 10 after tumor inoculation, tumors were either irradiated with one dose of 20 Gy or mice received sham treatment. For anti-PD-L1 treatment experiments, 200 μg anti-PD-L1 (10F.9G2) or isotype control was given by i.p. every three days for a total of four times starting on day 10 after tumor inoculation. For type I IFN blockade experiments, 200 μg anti-IFNAR1 were intratumorally injected on days 0 and 2 after irradiation. For CD4 or CD8 T cell depletion experiments, 200 μg anti-CD4 or anti-CD8 mAb was delivered four times by i.p. injection every 3 days starting 1 day before therapies. Artemin-neutralizing antibody was delivered i.t. at 1 μg/mouse starting on day of irradiation, every 2 days for 7 doses. For Ter-cell depletion, anti-ter119 was injected i.p. at 20 μg/mouse every 2 days for 4 doses. For Ter-cell or artemin treatment groups, mice were administered 1×10^7 purified Ter cells i.v. every other day for a total of three doses, or mice were treated with 0.5 μg/mouse artemin i.t. every other day starting on day 0 of therapies throughout the studies. For EPO treatment groups, mice were treated with 20 U/mouse EPO i.v. every other day throughout the studies, starting on day 0 of the therapies. IFN-γ was administered through intrasplenic injection on day 15 post tumor implantation at 2 μg/mouse for 1 dose. LOXO-292 was administered by oral gavaging at 100 μg/mouse/day throughout the entire studies, starting on day 0 of the therapies. Spleens were harvested on day 20 or at indicated times post-inoculation for analysis of spleen size or splenic cells. Tumor size was monitored and calculated with the formula for area (length×width).
(§2) Flow Cytometry. […] Single cell suspensions were blocked with anti-FcR (2.4G2, BioXcell) and then stained with fluorescence-labeled antibodies. Flow cytometry was performed on BD LSR Fortessa at The University of Chicago core facility and data were analyzed with FlowJo software.
For orientation: In flow cytometry, cells or beads pass a laser one at a time.

Series [3] relates to LLC tumor. The experiment in a line: Tumor growth of LLC tumor-bearing mice treated with IR or anti-PD-L1 plus test agent. The series is classed as in vivo, mouse. The conditions noted are these: LLC tumor-bearing B6 mice; for Tumor growth: influence on the therapeutic effect of IR and PD-L1 blockade: agent combined with 20 Gy IR or anti-PD-L1. Here is the method:
as §1

In series [4] the test system is LLC tumor. The experiment in a line: Spontaneous lung metastasis (number of lung nodules) in LLC tumor-bearing mice. The series is classed as in vivo, mouse. The conditions noted are these: murine LLC model; combined with IR or anti-PD-L1. How it is done: FIG. 55. Number of lung nodules in LLC tumor-bearing mice at the end of tumor growth measurement: anti-PD-L1 treatment. B6 mice were inoculated with LLC cells. On day 10 post inoculation, tumor-bearing mice were treated with anti-PD-L1. Splenectomy was performed 1 day before treatments. Representative data are shown from two or three experiments conducted with 3-5 mice or samples per group. Data are represented as mean±SD. **p<0.01 and ***p<0.001.
FIGS. 62A-62B. Number of lung modules. B6 mice were inoculated with LLC cells. On day 10 post inoculation, tumor-bearing mice were treated with either IR (FIG. 62A) or anti-PD-L1 (FIG. 62B) plus LOXO-292. Splenectomy was performed 1 day before treatments. […] Representative data are shown from two or three experiments conducted with 3-5 mice or samples per group. Data are represented as mean±SD. *p<0.05, **p<0.01, and ***p<0.001.
Tumor models and treatments. 1×10^6 MC38, LLC, or B16-SIY tumor cells were subcutaneously injected into the flank of mice. On day 10 after tumor inoculation, tumors were either irradiated with one dose of 20 Gy or mice received sham treatment. For anti-PD-L1 treatment experiments, 200 μg anti-PD-L1 (10F.9G2) or isotype control was given by i.p. every three days for a total of four times starting on day 10 after tumor inoculation. […] Tumor size was monitored and calculated with the formula for area (length×width).

For series [5], the system named is p-AKT and p-ERK in LLC cells. The experiment in a line: Western blot of p-AKT and p-ERK in LLC cells treated with ARTN and LOXO-292. The series is classed as cell-based, mouse. The conditions noted are these: 100 ng/mL ARTN and 1 μg/mL LOXO-292. Here is the method: FIGS. 61A-61C. Tumor growth of LLC tumor-bearing mice treated with LOXO-292 and either IR (FIG. 61A) or anti-PD-L1 (FIG. 61B). (FIG. 61C) p-AKT and p-ERK in LLC cells treated with 100 ng/mL ARTN and 1 μg/mL LOXO-292 were detected by western blot. Representative data are shown from two or three experiments. Data are represented as mean±SD. *p<0.05, **p<0.01, and ***p<0.001.
Western Blot Analysis. Whole-cell protein was extracted with Triton-X100 buffer (150 mM sodium chloride, 50 mM Tris, 1% Triton-X100; pH 8.0) with proteinase inhibitors (Thermo Scientific®). Immuno-blotting analyses were performed as previously described (Hou, Y., Liang, H., Rao, E., Zheng, W., Huang, X., Deng, L., Zhang, Y., Yu, X., Xu, M., Mauceri, H., et al. (2018). Non-canonical NF-kappaB Antagonizes STING Sensor-Mediated DNA Sensing in Radiotherapy. Immunity 49, 490-503 e494). The amount of loaded protein was normalized to GAPDH (60004-1-Ig, Proteintech Group) or actin (8226, Abcam).

In series [6] the test system is artemin. As to the kind of experiment: Artemin levels in serum (ELISA) and artemin mRNA in spleen (qPCR). The series is classed as in vivo, mouse. The conditions noted are these: LLC tumor-bearing mice treated with IR or anti-PD-L1 plus EPO i.v. How it is done: ELISA. Tumor tissues were homogenized in PBS with protease inhibitor followed by the addition of Triton X-100. Serum was collected on day 20 post-tumor inoculation or at indicated times. The concentration of artemin or TGF-β was measured with artemin ELISA Kit (E03A0032 for mouse and E01A0032 for human, BlueGene Biotechnology), or TGF-β1 Mouse ELISA Kit (BMS608-4, Invitrogen).
Real-time PCR assay. mRNA from tumor cells or splenocytes was isolated using TRIzol according to the manufacturer's instructions (Invitrogen). cDNA was synthesized from pd(N)6-primed mRNA reverse transcription using M-MLV superscript reverse transcriptase. Real-time PCR kits (SYBR Premix Ex Taq™, DRR041A) were purchased from Takara Bio Inc. PCR was performed using a CFX96 (Bio-Rad). mRNA specific for the housekeeping gene GAPDH was measured and used as an internal control. The primers for artemin were 5′-TACTGCATTGTCCCACTGCCTCC-3′ (SEQ ID NO: 1) for the upstream primer (UP) and 5′-TCGCAGGGTTCTTTCGCTGCACA-3′ (SEQ ID NO: 2) for the downstream primer (DP); GAPDH: 5′-AGACCAGCCTGAGCAAAAGA-3′ (SEQ ID NO: 3) for UP and 5′-CTAGGCTGGAGTGCAGTGGT-3′ (SEQ ID NO: 4) for DP.
Background: An ELISA detects its analyte on a solid surface through an enzyme-linked reagent.

The subject of series [7] is Ter-cells. The experiment in a line: Splenic cells by flow cytometry after intrasplenic IFN-γ injection in LLC-bearing mice. The series is classed as in vivo, mouse. Here is the method: FIG. 27. Apoptosis of splenic Ter-cells as analyzed by flow cytometry at indicated times post-injection. B6 mice were inoculated with LLC on day 0 and recombinant mouse IFN-γ was administered through intrasplenic injection on day 15. Representative data are shown from two or three experiments conducted with 3-5 mice per group. Data are represented as mean±SD. *p<0.05, **p<0.01, and ***p<0.001.
FIG. 28A-28C. Mechanism of IR-induced Ter-cell reduction in spleen. (FIG. 28A) Apoptosis of splenic CD45^+ immune cells, MDSCs, and CD8^+ T cells as analyzed by flow cytometry at indicated time post IFN-γ intrasplenic injection. (FIG. 28B) The percentage of CD8^+ T cells were analyzed by flow cytometry at indicated time post IFN-γ intrasplenic injection. (FIG. 28C) […] expression on splenic Ter-cells on day 3 post IFN-γ intrasplenic injection. Representative data are shown from two or three experiments conducted with 3-5 mice or samples per group. Data are represented as mean±SD. *p<0.05, **p<0.01, and ***p<0.001.
as §1, with “IFN-γ was administered through intrasplenic injection on day 15 post tumor implantation at 2 μg/mouse for 1 dose. LOXO-292 was administered by oral gavaging at 100 μg/mouse/day throughout the entire studies, starting on day 0 of the therapies. Spleens were harvested on day 20 or at indicated times post-inoculation for analysis of spleen size or splenic cells.” left out
as §2

[8] abbreviates: LLC tumor-bearing mice, intra-splenic injection.

Take `CO[C@]1(C(=O)N[C@@H](C)c2ccc(-n3cc(F)cn3)nc2)CC[C@H](c2nc(C)cc(Nc3cc(C)[nH]n3)n2)CC1` [BLU-677]: in series [1], the “Outcomes for patients with RET fusion-positive cancers” value is reported as “improved outcomes”.
As to IFN-α, the “Ter-cell accumulation in spleen after intra-tumor injection” value in series [2] (WT mice bearing LLC or B16-SIY tumors, i.t.) was “reduced Ter-cell accumulation”.
With `COc1ccc(CN2C3CC2CN(c2ccc(-c4cc(OCC(C)(C)O)cn5ncc(C#N)c45)cn2)C3)cn1` [LOXO-292], in series [1], the “Outcomes for patients with RET fusion-positive cancers” value is recorded as “improved outcomes”. Moreover, in series [3] (IR or anti-PD-L1 plus EPO plus agent), the “Tumor growth: therapeutic effect of IR and PD-L1 blockade in the context of EPO treatment” value is “restored the therapeutic effects of IR and PD-L1 blockade”. In addition, the “Tumor growth: influence on the therapeutic effect of IR and PD-L1 blockade” value in series [3] was “enhanced the effects of IR and PD-L1 blockade”. Further, the “Spontaneous lung metastasis: influence on the effects of IR and PD-L1 blockade” value in series [4] is “promoted the effects of IR and PD-L1 blockade”. In addition, the “Artemin-induced activation of downstream signaling (p-AKT, p-ERK)” value in series [5] was “inhibited artemin-induced activation of downstream signaling”.
As for “rhEPO: Recombinant human erythropoietin used for the treatment of anemia in cancer patients”, in series [1] (several clinical trials), the “Survival benefit in cancer patients treated by RT” value is on record as “detrimental effects”.

B1: EPO: recombinant erythropoietin (959-ME) from R&D Systems (protein, UniProt P07321 27-192, looked up)
Erythropoietin: APPRLICDSRVLERYILEAKEAENVTMGCAEGPRLSENITVPDTKVNFYAWKRMEVEEQAIEVWQGLSLLSEAILQAQALLANSSQPPETLQLHIDKAISGLRSLTSLLRVLGAQKELMSPPDTTPPAPLRTLTVDTFCKLFRVYANFLRGKLKLYTGEVCRRGDR
With B1, the “Level of secreted artemin in serum under IR or PD-L1 blockade” value in series [6] was “diminished the effects of IR and PD-L1 blockade”. In series [3], the “Tumor growth: influence on the therapeutic effect of IR and PD-L1 blockade” value is “inhibited the therapeutic effect of both IR and PD-L1 blockade”. In series [2] (LLC tumor-bearing mice treated with IR or anti-PD-L1 plus EPO i.v.), the “Ter-cell accumulation under IR or PD-L1 blockade” value was “diminished the effects of IR and PD-L1 blockade”. In addition, in series [2] (naive B6 mice, i.v. and s.c. routes), the “Spleen size and Ter-cell accumulation in naive mice” value is “increased spleen size and Ter-cell accumulation”.

B2: IFN-γ: Recombinant mouse IFN-γ (315-05) from Peprotech, intrasplenic injection (protein, UniProt P01580 23-155, looked up)
Interferon gamma: HGTVIESLESLNNYFNSSGIDVEEKSLFLDIWRNWQKDGDMKILQSQIISFYLRLFEVLKDNQAISNNISVIESHLITTFFSNSKAKKDAFMSIAKFEVNNPQVQRQAFNELIRVVHQLLPESSLRKRKRSRC
For the molecule B2, in series [7] (setting [8]), the “Abundance of CD8+ T cells in spleen” value is “restored the abundance”; the “Apoptosis of immune cells, including MDSCs and CD8+ T cells” value is “did not change apoptosis levels”. Further, the “Apoptosis of splenic Ter-cells” value in series [7] (LLC tumor-bearing mice, intra-splenic injection, 3 days after treatment) is on record as “increased apoptosis of Ter-cells”. The “MHC I expression on Ter-cells” value in series [7] (day 3 post intrasplenic injection) is reported as “enhanced the MHC I expression”.
